Data as given in the RNAGym collection of RNA variant scans (doi:10.1073/pnas.2313332121).

B1: TPR t1 (parent)
chain: GACCAAUCUGCCCUCAGAGCUCGAGAACAUCUUCGGAUGCAGAGGAGGCAGGCUUCGGUGGCGCGAUAGCGCCAACGUCCUCAACCUCCAAUGCAUCCCACCACAUGAUGAUGCCUGAAGAGCCUUGGUUUUUUG

Variants of: B1
Assay: polymerase ribozyme fitness, log enrichment relative to wild type (log ratio); higher = more active; in vitro selection for triplet polymerase activity
Procedure, shortened: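 Mutant libraries of both subunits of a heterodimeric triplet polymerase ribozyme were PCR-built, transcribed, and selected once in triplicate, with frozen incubation at −7 °C and capture of gel-excised extended constructs on streptavidin beads before RT-PCR. Illumina sequencing of input and output libraries was filtered to genotypes with ≥10 input reads and ≥1 read per output. Fitness is the logarithm of genotype enrichment over wild-type enrichment, using inverse-variance-weighted replicate averages. The logarithm is base 2.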

Compared with U109G A119G G135C, U109A U129A is lower in “polymerase ribozyme fitness (log ratio)” value: -3.19 for the first, -6.83 for the second.

C114G C115U and G107A C114A are within 0.2 log units of each other in “polymerase ribozyme fitness (log ratio)” value: -4.37 for the first, -4.24 for the second.

Going from A111C U131C to G113U, the “polymerase ribozyme fitness (log ratio)” value falls from 0.44 to -2.64.

Going from G113C to G113A, the “polymerase ribozyme fitness (log ratio)” value rises from -2.02 to -1.01.

First: A105G C124U
Second: G117C G120U U131G
The “polymerase ribozyme fitness (log ratio)” value of the first is higher: -0.654 for the first, -4.67 for the second.

Going from C104U A111U A119G to U106A U125A, the “polymerase ribozyme fitness (log ratio)” value rises from -1.53 to -0.469.

First: C115A G128U U133A
Second: C104A U125G
The “polymerase ribozyme fitness (log ratio)” value of the first is lower: -3.05 for the first, -2.44 for the second.

Going from G117U G127U to C98A C114U, the “polymerase ribozyme fitness (log ratio)” value falls from -4.77 to -6.3.

First: A105C G113U
Second: C104U G120A
The “polymerase ribozyme fitness (log ratio)” value of the first is lower: -4.85 for the first, 0.815 for the second.

Compared with U106A U109G A111U, C114A C124A is higher in “polymerase ribozyme fitness (log ratio)” value: -4.71 for the first, -1.12 for the second.

Compared with U112C A119U, U112A C115A U125G is lower in “polymerase ribozyme fitness (log ratio)” value: 1.24 for the first, 0.414 for the second.

Going from A111C C123G to C115U A118U U130G, the “polymerase ribozyme fitness (log ratio)” value falls from 0.549 to -1.69.

Going from G117U U131G to C102A G113C U126C, the “polymerase ribozyme fitness (log ratio)” value falls from -4.64 to -4.92.

Going from U106C G117C to U106C G117A, the “polymerase ribozyme fitness (log ratio)” value rises from -3.72 to -3.23.

G120C U129A and C99U C123G are within 0.2 log units of each other in “polymerase ribozyme fitness (log ratio)” value: -1.15 for the first, -1.13 for the second.

Compared with A103U A119U, C98U C102A A111G A121G G122A is higher in “polymerase ribozyme fitness (log ratio)” value: -5.64 for the first, -5.08 for the second.

First: U109G U129A
Second: C99G A121U
The “polymerase ribozyme fitness (log ratio)” value of the first is higher: -5.24 for the first, -6.54 for the second.

Compared with C101G G135C, G120C U133A is higher in “polymerase ribozyme fitness (log ratio)” value: -1.41 for the first, 1.48 for the second.

First: C98A C99A
Second: U109A G110A
The “polymerase ribozyme fitness (log ratio)” value of the first is lower: -6.47 for the first, -4.3 for the second.

Going from C115A U129C to A105U U109C, the “polymerase ribozyme fitness (log ratio)” value falls from -2.62 to -5.35.

Going from A100C C123A to G107A C124A, the “polymerase ribozyme fitness (log ratio)” value falls from -0.801 to -2.63.

Going from A108C C124G to C104A C114G G127C, the “polymerase ribozyme fitness (log ratio)” value falls from -4.87 to -6.1.

Going from U112A G122C to U112A G122A, the “polymerase ribozyme fitness (log ratio)” value falls from 0.265 to -0.631.

Compared with G117U G135U, C98G G120A is lower in “polymerase ribozyme fitness (log ratio)” value: -1.25 for the first, -4.76 for the second.

Compared with C115U A119U U130G, C101A G110A C123A is lower in “polymerase ribozyme fitness (log ratio)” value: -1.35 for the first, -3.51 for the second.

First: U109A C114U A118C
Second: A103G C114U
The “polymerase ribozyme fitness (log ratio)” value of the first is lower: -5.26 for the first, -3 for the second.

Going from G110U U129A to U112C C124A, the “polymerase ribozyme fitness (log ratio)” value rises from -2.53 to 0.693.

Compared with C101U U129G U130C, U106C U112A is higher in “polymerase ribozyme fitness (log ratio)” value: 0.135 for the first, 0.973 for the second.

Compared with U112A G128C, A118U G120A is higher in “polymerase ribozyme fitness (log ratio)” value: -2.66 for the first, -0.267 for the second.

Compared with U109C A121U, C101U A103U G113U is lower in “polymerase ribozyme fitness (log ratio)” value: -3.68 for the first, -7.03 for the second.

Compared with C102U G120U, U116G C124A is higher in “polymerase ribozyme fitness (log ratio)” value: -0.992 for the first, 0.803 for the second.

Going from U116A C124A to C101G C114U, the “polymerase ribozyme fitness (log ratio)” value falls from 0.141 to -3.32.

Compared with U106G C114U, C102A C124U is higher in “polymerase ribozyme fitness (log ratio)” value: -1.86 for the first, 0.448 for the second.

Compared with C114G G122U, C114A U129C is higher in “polymerase ribozyme fitness (log ratio)” value: -2.87 for the first, -1.63 for the second.

First: A121C G127A G128U
Second: C99A A121G
The “polymerase ribozyme fitness (log ratio)” value of the first is higher: -0.559 for the first, -4.75 for the second.

Compared with G110C C123U, G113C C114U C115G C124U is higher in “polymerase ribozyme fitness (log ratio)” value: -4.69 for the first, -3.2 for the second.

Compared with C99U U131G, C99U U131C is higher in “polymerase ribozyme fitness (log ratio)” value: -3.59 for the first, -2.72 for the second.

Compared with A100U U126G G135U, C104A C115A is higher in “polymerase ribozyme fitness (log ratio)” value: -2.69 for the first, -0.858 for the second.

Going from C97A A105G to G110A U131G, the “polymerase ribozyme fitness (log ratio)” value rises from -5.98 to -1.96.

First: U112G G122A G128A
Second: A105C U129A
The “polymerase ribozyme fitness (log ratio)” value of the first is higher: -2.62 for the first, -4.21 for the second.

Compared with G107C G120C U130A, U106A C114G is higher in “polymerase ribozyme fitness (log ratio)” value: -4.61 for the first, -3.33 for the second.

Compared with A100U G110U, C115G G120A is higher in “polymerase ribozyme fitness (log ratio)” value: -2.67 for the first, -1.35 for the second.

Compared with U112A U131A, C99U C102G is lower in “polymerase ribozyme fitness (log ratio)” value: 1.02 for the first, -6.32 for the second.

Compared with U106C U131C U132A, G120A G135C is higher in “polymerase ribozyme fitness (log ratio)” value: -1.1 for the first, 0.457 for the second.

First: A121C G122A
Second: A103U G113A U116A A121U
The “polymerase ribozyme fitness (log ratio)” value of the first is higher: 1.31 for the first, -5.45 for the second.

Going from C102A G128A to U106C C123U, the “polymerase ribozyme fitness (log ratio)” value rises from -4.69 to 0.901.

First: U106C C123G
Second: U106C C123A
The “polymerase ribozyme fitness (log ratio)” value of the first is higher: 0.936 for the first, 0.522 for the second.

Going from C114U U116A to U112C G122A, the “polymerase ribozyme fitness (log ratio)” value rises from -5.58 to 0.065.

Going from U106A U132A to C102A G127A, the “polymerase ribozyme fitness (log ratio)” value falls from -0.65 to -3.45.

First: C114A U125A
Second: C104G U112A
The “polymerase ribozyme fitness (log ratio)” value of the first is higher: -1.73 for the first, -4.8 for the second.

Compared with C101A A111G, U112G U116C is lower in “polymerase ribozyme fitness (log ratio)” value: 0.362 for the first, -0.775 for the second.

Compared with G110C U131C, U109A U112C U130A G135U is lower in “polymerase ribozyme fitness (log ratio)” value: -3.75 for the first, -5.01 for the second.

Compared with U112G G120U G122C, C98A C124G G128A U133G is lower in “polymerase ribozyme fitness (log ratio)” value: -1.48 for the first, -6.31 for the second.

Compared with G110A U130C, G110A U130A is lower in “polymerase ribozyme fitness (log ratio)” value: -0.539 for the first, -0.862 for the second.

First: G120C C124U
Second: A105U
The “polymerase ribozyme fitness (log ratio)” value of the first is higher: 1.74 for the first, -1.69 for the second.

Compared with A105C, A105G is higher in “polymerase ribozyme fitness (log ratio)” value: -2.22 for the first, -1.71 for the second.

C115U C123G and C104A C123U are within 0.2 log units of each other in “polymerase ribozyme fitness (log ratio)” value: -0.112 for the first, -0.0302 for the second.

Compared with C114G U133A, G110A A111U is higher in “polymerase ribozyme fitness (log ratio)” value: -2.37 for the first, -1.9 for the second.

Compared with C104A G135U, C97U G117C is lower in “polymerase ribozyme fitness (log ratio)” value: -2.01 for the first, -4.37 for the second.

Compared with A111G C124A U126A, C102A G117C is lower in “polymerase ribozyme fitness (log ratio)” value: 0.226 for the first, -6.66 for the second.

Going from A111C G127C to A100U C115U, the “polymerase ribozyme fitness (log ratio)” value falls from -0.199 to -2.94.

Compared with C115U G128U, G110C A121C U130A is higher in “polymerase ribozyme fitness (log ratio)” value: -4.06 for the first, -3.51 for the second.

First: C99U C124A
Second: C97G A121U
The “polymerase ribozyme fitness (log ratio)” value of the first is higher: -1.1 for the first, -2.07 for the second.

First: U109A A119G
Second: U106C G113C
The “polymerase ribozyme fitness (log ratio)” value of the first is lower: -5.27 for the first, -2.72 for the second.

First: C97U G110C
Second: C98U C123U
The “polymerase ribozyme fitness (log ratio)” value of the first is lower: -3.29 for the first, -1.28 for the second.

Going from U112A G127A to C102U G117U, the “polymerase ribozyme fitness (log ratio)” value falls from 0.262 to -4.91.

Compared with C101U U129A, A100C U112G U116A is lower in “polymerase ribozyme fitness (log ratio)” value: -1.62 for the first, -4.36 for the second.

First: C102U A111U U129C
Second: A100C G120U U125C
The “polymerase ribozyme fitness (log ratio)” value of the first is lower: -6.46 for the first, -0.56 for the second.

Going from A121C U133A to C115U G120A A121C, the “polymerase ribozyme fitness (log ratio)” value falls from -0.797 to -2.04.

First: C101G G120A G122C
Second: G117U U129G
The “polymerase ribozyme fitness (log ratio)” value of the first is higher: -2.36 for the first, -4.23 for the second.

A105U U106G G120C and U112A A118U are within 0.2 log units of each other in “polymerase ribozyme fitness (log ratio)” value: 0.766 for the first, 0.895 for the second.

Going from U106G U112G to A111C C124U G128C U129A, the “polymerase ribozyme fitness (log ratio)” value falls from -1.25 to -3.3.

Going from C98U G135C to C101U G128A, the “polymerase ribozyme fitness (log ratio)” value falls from -0.757 to -2.16.

First: C114U U133A
Second: C97A C124A
The “polymerase ribozyme fitness (log ratio)” value of the first is higher: -1.63 for the first, -2.9 for the second.

Going from C99G U112C U133A to G113C A119C, the “polymerase ribozyme fitness (log ratio)” value rises from -6.59 to -4.37.

Going from G113C A119G to U106A G117A, the “polymerase ribozyme fitness (log ratio)” value falls from -0.737 to -1.55.

G113A A118U and G113A A118C are within 0.2 log units of each other in “polymerase ribozyme fitness (log ratio)” value: -2.67 for the first, -2.55 for the second.

Going from G117C U126G to A100C G120A G122A, the “polymerase ribozyme fitness (log ratio)” value rises from -3.22 to -1.28.

Going from C115A U132A to G117A U130G, the “polymerase ribozyme fitness (log ratio)” value falls from 0.0612 to -1.63.

First: G107U A119U A121C
Second: U109C A111U
The “polymerase ribozyme fitness (log ratio)” value of the first is higher: -3.29 for the first, -4.13 for the second.

Compared with U112A U129A, A103U C124G is lower in “polymerase ribozyme fitness (log ratio)” value: 0.929 for the first, -3.17 for the second.

Going from C101G A121U to G117C G120U, the “polymerase ribozyme fitness (log ratio)” value falls from -0.28 to -4.51.

First: U106G U125G
Second: G113A G127U
The “polymerase ribozyme fitness (log ratio)” value of the first is lower: -3.81 for the first, -3.27 for the second.

For U112G C124U, the “polymerase ribozyme fitness (log ratio)” value was 0.835.
